Results taken from patent US20150147337A1 (Merck Sharp & Dohme, published 2015).
“And” between values parts separate entries of the source, which are not always exact repeats. Equal values may be shown once.

Target: T1, Human IL-23 (human, UniProt P29460 23-328)
T1 construct: also called huIL-23
T1 sequence 1: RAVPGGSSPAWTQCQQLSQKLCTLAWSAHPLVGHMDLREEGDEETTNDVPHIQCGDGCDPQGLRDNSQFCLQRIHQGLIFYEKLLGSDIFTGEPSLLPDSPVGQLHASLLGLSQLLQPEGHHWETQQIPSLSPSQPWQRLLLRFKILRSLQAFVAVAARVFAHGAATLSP
T1 sequence 2: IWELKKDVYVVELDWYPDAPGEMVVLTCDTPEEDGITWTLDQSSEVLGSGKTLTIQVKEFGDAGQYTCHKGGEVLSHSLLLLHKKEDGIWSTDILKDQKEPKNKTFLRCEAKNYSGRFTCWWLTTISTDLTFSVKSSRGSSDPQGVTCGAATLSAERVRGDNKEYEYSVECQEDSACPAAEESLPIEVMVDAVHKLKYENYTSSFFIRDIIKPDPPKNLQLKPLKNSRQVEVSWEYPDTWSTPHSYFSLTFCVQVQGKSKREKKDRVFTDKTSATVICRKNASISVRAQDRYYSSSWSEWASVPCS
Assay: ELISA, human IL-23 immobilized on plate, HRP anti-IgG detection, four-parameter fit
Protocol: Re-dissolved crystalline anti-huIL-23p19 mAb 13B8-b was also compared to the original solution antibody by ELISA. Two different lots of each of solution and re-dissolved crystalline anti-huIL-23p19 mAb 13B8-b were tested for their ability to bind to IL-23. Human IL-23 was immobilized onto an ELISA plate, and serial dilutions of anti-huIL-23p19 mAb 13B8-b (solution or re-dissolved crystalline) were added to the wells. After the plates were washed, bound antibody was detected using an HRP-labeled anti-IgG antibody and a colorimetric substrate. Plates were read in a plate reader and the dose response curves were analyzed using a four-parameter logistic fit. At equilibrium, the EC50 of a saturation binding curve reflects the equilibrium binding dissociation constant (KD), where a higher value represents lower affinity, and a lower value represents higher affinity, of the antibody for the ligand. The potency of the test sample is assessed by comparing binding curves of the test samples to a reference material by the ratio of the EC50's. Potency is expressed as percent of reference material, in this case, selected to be lot #1 of the solution form of anti-huIL-23p19 mAb 13B8-b.

B1: humanized anti-human IL-23p19 monoclonal antibody 13B8-b (antibody, human IgG1, kappa, V domains shown)
VH: QVQLVQSGAEVKKPGASVKVSCKASGYIFITYWMTWVRQAPGQGLEWMGQIFPASGSADYNEKFEGRVTMTTDTSTSTAYMELRSLRSDDTAVYYCARGGGGFAYWGQGTLVTVSS
VL: DIQMTQSPSSLSASVGDRVTITCRTSENIYSYLAWYQQKPGKAPKLLIYNAKTLAEGVPSRFSGSGSGTDFTLTISSLQPEDFATYYCQHHYGIPFTFGQGTKVEIKR
notes: Full-length IgG1 kappa; It was tested as never-crystallized solution material (two lots) and as antibody re-dissolved from crystals (two lots); also called anti-huIL-23p19 mAb 13B8-b; hu13B8-b
- EC50: 71 pM and 106 pM and 73 pM and 116 pM
